Results as given in PMC6708749.

How the values were obtained:
Experiment in all cases: SEC
[1] = biological target: ELIC-α1GABAAR chimera, Q242L mutant (Erwinia chrysanthemi | human)
[2] = biological target: ELIC-α1GABAAR chimera, Q242W mutant (Erwinia chrysanthemi | human)
[3] = biological target: ELIC-α1GABAAR chimera, W246L mutant (Erwinia chrysanthemi | human)
[4] = biological target: ELIC-α1GABAAR chimera, WT (Erwinia chrysanthemi | human)

With ELIC-α1GABAAR chimera, Q242L mutant the stoichiometry N [1] was 5.

With ELIC-α1GABAAR chimera, Q242W mutant the stoichiometry N [2] was 5.

Substance ELIC-α1GABAAR chimera, W246L mutant has a stoichiometry N [3] of 5.

For ELIC-α1GABAAR chimera, WT, the stoichiometry N [4] was 5.

ELIC-β3GABAAR chimera showed a stoichiometry N [4] of 5.
